Laboratory results: US20210088528A1 (published 2021)

Columns and labels:
[1] = biological target: T1, human PD-L1-His6 (human, UniProt Q9NZQ7 19-238); assay: BLI, PD-1-Fc on AHC biosensor
T1 construct: extracellular domain; also called hPD-L1; B7-H1; not shown: His6 tag (by the name PD-L1-His6)
Protocol: (§1) BLI was performed on an Octet RED96® system at 30° C. in a buffer of 150 mM NaCl, 20 mM HEPES:NaOH pH 7.4, 0.1% BSA and 0.05% Tween 20. The human PD-1-Fc proteins were loaded onto anti-human IgG Fc capture (AHC) biosensors, associated in defined concentrations of human PD-L2-His6 or PD-L1-His6 proteins, and then dissociated in buffer.
(§2) Using bio-layer interferometry (BLI), the binding of PD-L2 to wild-type PD-1 and the variants was compared (data not shown). The binding of sensor-loaded PD-1 and the loop variants to 190 nM PD-L2 and 1.1 μM PD-L1 was measured using biolayer interferometry. Corresponding PD-1-Fc proteins were loaded on anti-human IgG Fc capture (AHC) biosensors. Association was monitored for 2 min and dissociation for 2 min. Fitting of binding curves was performed in Graphpad Prism 8 software using built-in equations of “Receptor binding—kinetics” models. Means and standard deviations were calculated from 3-4 independent experiments. […] Fitting of binding curves was performed in Graphpad Prism 8 using built-in equations of “Receptor binding—kinetics” models. Means and standard deviations were calculated from 3-4 independent experiments. […] Kinetic measurements of binding of the ligands by PD-1 with BLI also permitted the determination of association constants (kₒₙ).

[2] = biological target: T2, human PD-L2-His6 (human, UniProt Q9BQ51 20-220); assay: BLI, PD-1-Fc on AHC biosensor
T2 construct: extracellular domain; also called hPD-L2; B7-DC; not shown: His6 tag (by the name PD-L2-His6)
T2 sequence (looked up): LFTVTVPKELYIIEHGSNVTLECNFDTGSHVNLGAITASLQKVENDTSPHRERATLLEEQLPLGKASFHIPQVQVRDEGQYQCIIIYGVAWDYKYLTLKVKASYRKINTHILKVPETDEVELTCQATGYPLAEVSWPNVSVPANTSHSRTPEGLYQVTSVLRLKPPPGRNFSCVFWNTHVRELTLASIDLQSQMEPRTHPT
Protocol: as §1, §2

[3] = biological target: T2, human PD-L2-His6; assay: BLI (Octet RED96), PD-1-Fc on AHC biosensor, PD-L2-His6 in solution
Protocol: as §1, §2

[4] = biological target: T1, human PD-L1-His6; assay: BLI (Octet RED96), PD-1-Fc on AHC biosensor, PD-L1-His6 in solution
Protocol: as §1, §2

T1 sequence (Q9NZQ7 19-238): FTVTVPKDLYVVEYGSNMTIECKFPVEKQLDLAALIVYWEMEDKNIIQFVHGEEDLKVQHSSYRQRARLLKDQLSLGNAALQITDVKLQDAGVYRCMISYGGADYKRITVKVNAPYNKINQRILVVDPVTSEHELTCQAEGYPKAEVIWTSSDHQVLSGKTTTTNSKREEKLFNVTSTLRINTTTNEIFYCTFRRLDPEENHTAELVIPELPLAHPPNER

fold increase of kon against wild-type PD-1 [1]: 14 fold | fold increase in binding affinity against wild-type PD-1 [2]: ~200 fold | fold increase of kon against wild-type PD-1 [2]: 3 fold | Kd [3]: 2.6 nM | koff [3]: 0.0014 s⁻¹ | kon [3]: 580000 M⁻¹ s⁻¹ | Kd [4]: 72 nM | koff [4]: 0.036 s⁻¹ | kon [4]: 520000 M⁻¹ s⁻¹
B1: human PD-1-Fc N74G T76P A132V (Fc fusion)
chain: PGWFLDSPDRPWNPPTFSPALLVVTEGDNATFTCSFSNTSESFVLNWYRMSPSGQPDKLAAFPEDRSQPGQDCRFRVTQLPNGRDFHMSVVRARRNDSGTYLCGAISLAPKVQIKESLRAELRVTERRAE
notes: also called PD-1 triple mutant; triple-mutant; not shown: Fc portion
